Tests used:
[1] = tested on: MS2 coat protein; assay: apparent KD of MS2 coat protein, switch OFF state (with FMN for OFF switches, without FMN for ON switches); designed switch direction (-1 OFF switch, 1 ON switch): -1; higher = weaker reporter binding; conditions: FMN input: 0 or 200 uM; Eterna round: R93 (includes R88 designs)
How it was run: (§1)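 With or without constant ligand, designed RNA switches in 100 mM Tris-HCl pH 7.5, 80 mM KCl and 4 mM MgCl2 were titrated with SNAP-549-labelled MS2 coat protein. Concentrations went up in twofold steps from 0.7 or 1.5 nM to 3 µM. The switches had been transcribed on-chip from Illumina sequencing clusters, and apparent KD is the per-design median of normalised cluster binding-curve fits.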

[2] = tested on: MS2 coat protein; assay: apparent KD of MS2 coat protein, switch ON state; designed switch direction (-1 OFF switch, 1 ON switch): -1; higher = weaker reporter binding; conditions: FMN input: 0 or 200 uM; Eterna round: R93 (includes R88 designs)
How it was run: as §1

GAAAACAGAGGAUAUACAUAAGCUAGACGAAAGUCUAGCAAACAUGAGGAUCACCCAUGUAGAAGGCUGAAGAA [Meechl Mod]
apparent KD of MS2 coat protein [1]: 27.7 nM | apparent KD of MS2 coat protein [2]: 29.2 nM

UAUAUACAUGAGGAUCACCCAUGUCAGGAUAUGCGCCUAGAAUAUACAUAAGAUACAAGCAGAAGGGACACUAA [JR_Exc001_Sub206]
apparent KD of MS2 coat protein [1]: 49.9 nM | apparent KD of MS2 coat protein [2]: 57.3 nM

GAAAAGUGAGGAUAUUCGGAUAGGAAAACGAAAACCUAUCCGAAGAAGGCACAUGAGGAUCACCCAUGUGGGAA [Mat - Exaclusion 4 - Eli mod - D49]
apparent KD of MS2 coat protein [1]: 119 nM | apparent KD of MS2 coat protein [2]: 80.3 nM

AACAUGUUAGGAUAUGAAAGAAAAGAAAAGAAAGAAAAGAAUCAGAAGGAACAUGAGGAUCACCCAUGUAAGAA [EteRNA is fun!]
apparent KD of MS2 coat protein [1]: 19.8 nM | apparent KD of MS2 coat protein [2]: 25.6 nM

AUAGUACAUGAGGAUCACCCAUGUCAGGAUAUCGGAUGUGACAUGAAAAAAAUGUUAGUGAGAAGGGACUAUAA [EX1 Malc#18 Mod 3 - Jieux - Exclusion 1]
apparent KD of MS2 coat protein [1]: 111 nM | apparent KD of MS2 coat protein [2]: 66.9 nM

AAUAACAGAGGAUAUACGAAAAUAAGCGGAAACGCAAAGGGACAUGAGGAUCACCCAUGUAGAAGGCUGGAUAA [Tetraloop... 61% 2]
apparent KD of MS2 coat protein [1]: 148 nM | apparent KD of MS2 coat protein [2]: 28.3 nM

AAAACUGGAGGAUAUACGUACAUGUCGAAAGACGUGAAGGGACAUGAGGAUCACCCAUGUAGAAGGCUAGAAAA [Mat - Exclusion 2 - JL mod - D71]
apparent KD of MS2 coat protein [1]: 87.6 nM | apparent KD of MS2 coat protein [2]: 53.1 nM

ACAAGAUCAGGAUAUACAUGAGGAUCACCCAUGUAUAAAAAAAAAGGGCCUUCUACAUGUAGAAGGGAUCUUGU [EX3 290: Random 26]
apparent KD of MS2 coat protein [1]: 19.9 nM | apparent KD of MS2 coat protein [2]: 14.3 nM

AACAAACAUGAGGAUCACCCAUGUCAGGAUAUCGAAACAACAAACAACAAACAACAAACGAGAAGGGACAACAA [e1]
apparent KD of MS2 coat protein [1]: 23.8 nM | apparent KD of MS2 coat protein [2]: 19.2 nM

AAGAACCUAGGAUAUACAUGAGGAUCACCCAUGUAAAAGAAAGAAAAGGGAAAGAAAAGUAGAAGGAGGAAGAA [Menmire-setpenre Amenmesse]
apparent KD of MS2 coat protein [1]: 22.2 nM | apparent KD of MS2 coat protein [2]: 18.4 nM

AAGACUAGAGGAUAUACAUGAGGAUCACCCAUGUAACUGUCAGGUGACUGACGGAGAAGUAGAAGGCUAGUCAA [Mat - Exclusion 3 - JL mod - D83]
apparent KD of MS2 coat protein [1]: 19.9 nM | apparent KD of MS2 coat protein [2]: 14.6 nM

UUUAUGUGAGGAUAUCAGUAGUAAAAAAAUAAAAUUACUACUGAGAAGGCACAUGAGGAUCACCCAUGUGAAAA [EX4 340: Super Stable 40]
apparent KD of MS2 coat protein [1]: 161 nM | apparent KD of MS2 coat protein [2]: 61.9 nM

AAAAAGUGAGGAUAUGAAAAUAAAAAAAAAAAAAAAAUAAAUCAGAAGGCACAUGAGGAUCACCCAUGUAAAAA [JR_Exc004_Sub1201]
apparent KD of MS2 coat protein [1]: 38 nM | apparent KD of MS2 coat protein [2]: 29.8 nM

AAGAAACAUGAGGAUCACCCAUGUGAGGAUAUCAAAAAGAAAAGAAAAGAAAGAAGAAUGAGAAGGCACAAAGG [Mery—]
apparent KD of MS2 coat protein [1]: 32.5 nM | apparent KD of MS2 coat protein [2]: 30.5 nM

AACAGGUCAGGAUAUGUGGAAAAAAUAAAAAAAAUAAAAACACAGAAGGGACAUGAGGAUCACCCAUGUAAAUA [May 22]
apparent KD of MS2 coat protein [1]: 114 nM | apparent KD of MS2 coat protein [2]: 58 nM

AAGAAUCGAGGAUAUACAUGAAAGAAAGAAAAGAAAAGAAAACAUGAGGAUCACCCAUGUAGAAGGCGAUAGAA [EteRNA is fun!]
apparent KD of MS2 coat protein [1]: 28.7 nM | apparent KD of MS2 coat protein [2]: 21.3 nM

AAGAACUUAGGAUAUACAAAAUAAAAGAAAAGAAAGAAAGAACAUGAGGAUCACCCAUGUAGAAGGGAGAAGAA [Nimaatre Amenemhat III]
apparent KD of MS2 coat protein [1]: 29.8 nM | apparent KD of MS2 coat protein [2]: 55.9 nM

GAACGCCUAGGAUAUACAUGAGGAUCACCCAUGUCUCCCAGUCCUGGAGUGACCUCUAGUAGAAGGAGGAAUAA [Ertein]
apparent KD of MS2 coat protein [1]: 115 nM | apparent KD of MS2 coat protein [2]: 342 nM

AGAUGACAAGGAUAUACUAGGGAUGCUAGUCGAGAAGAAGAACAUGAGGAUCACCCAUGUAGAAGGUGUAAGAA [JR_Exc002_Sub1703]
apparent KD of MS2 coat protein [1]: 33.8 nM | apparent KD of MS2 coat protein [2]: 35.4 nM

AAAAAGGGAGGAUAUGCAUAAAAAAAAAAAAAAAAAAAAAAACAUGAGGAUCACCCAUGUAGAAGGCCCAAAAA [Dora Explored - Jieux - Exclusion 2]
apparent KD of MS2 coat protein [1]: 36.3 nM | apparent KD of MS2 coat protein [2]: 58 nM

GGAGUGCAAGGAUAUACAUGAGGAUCACCCAUGUGAGAGAAAAAAGUGAGAAAGAAAAGUAGAAGGUGCGUUCG [salish99-ex3-131]
apparent KD of MS2 coat protein [1]: 44.8 nM | apparent KD of MS2 coat protein [2]: 29.2 nM

AGUCUGAGAGGAUAUACAUGGAAAAAAAAAGUAAGAUCCCUACAUGAGGAUCACCCAUGUAGAAGGCUCUGACA [Ex2 Design 144: Sub-opt 8]
apparent KD of MS2 coat protein [1]: 22.7 nM | apparent KD of MS2 coat protein [2]: 41.7 nM

AAGAAGUCAGGAUAUGCCAGAGAUCACGAAAGUGAUGAGUAGCAGAAGGGACAUGAGGAUCACCCAUGUAAAGA [Opal 6]
apparent KD of MS2 coat protein [1]: 46.5 nM | apparent KD of MS2 coat protein [2]: 48.2 nM

CAAAGGUGAGGAUAUACAUAACUAUGACGAAAGUCAUAAAAACAUGAGGAUCACCCAUGUAGAAGGCACCACAA [E2 64% 1]
apparent KD of MS2 coat protein [1]: 31.3 nM | apparent KD of MS2 coat protein [2]: 38.1 nM

UAAAAACAUGAGGAUCACCCAUGUGAGGAUAUCGAAAAAAAAAAAUUAAAAAAGGAAGCGAGAAGGUACGGGAU [close, no cigar]
apparent KD of MS2 coat protein [1]: 33.2 nM | apparent KD of MS2 coat protein [2]: 33.3 nM

AAAAAGUCAGGAUAUGUCAAAAGUCACAAAAGUGACAAAAGACAGAAGGGACAUGAGGAUCACCCAUGUAAAAA [Mod of Eli]
apparent KD of MS2 coat protein [1]: 46.1 nM | apparent KD of MS2 coat protein [2]: 53.1 nM

AGGAAACAUGAGGAUCACCCAUGUAAGGAUAUGUGAAAGAAAAGAAAAGAAAGAAGAAGCAGAAGGUACAAGAA [Anedjib]
apparent KD of MS2 coat protein [1]: 47.2 nM | apparent KD of MS2 coat protein [2]: 34.9 nM

AAAAAACAUGAGGAUCACCCAUGUGAGGAUAUGGAAAGAAAAAAAAAGAAAGAAAAAACCAGAAGGCACAAAAA [Amethyst 30]
apparent KD of MS2 coat protein [1]: 23.8 nM | apparent KD of MS2 coat protein [2]: 42.8 nM

AAGGGACAUGAGGAUCACCCAUGUCAGGAUAUGAUGCGAAUAAAGAAAGAAUAAAGCAUCAGAAGGGACAAAAA [Mat - Exclusion 1 - Eli mod - D63]
apparent KD of MS2 coat protein [1]: 55.7 nM | apparent KD of MS2 coat protein [2]: 35.6 nM

AAAAAGUGAGGAUAUGUACGAAAAAAUAAAAAAAUAAAAGUACAGAAGGCACAUGAGGAUCACCCAUGUGAAAA [EX4 397: Minimal 10]
apparent KD of MS2 coat protein [1]: 22.9 nM | apparent KD of MS2 coat protein [2]: 27.4 nM

AAAGCACGAGGAUAUACAUGAGGAUCACCCAUGUAUAAAAAAAAAAAAAAAUCCUCAUGUAGAAGGCGUGCAAA
apparent KD of MS2 coat protein [1]: 9.78 nM | apparent KD of MS2 coat protein [2]: 17.4 nM

CUCUUGUCAGGAUAUCGAAGAAAAGAAAAGAAAGAAAAGAACGAGAAGGGACAUGAGGAUCACCCAUGUAAGAA [EteRNA is fun!]
apparent KD of MS2 coat protein [1]: 67.6 nM | apparent KD of MS2 coat protein [2]: 61.5 nM

CAGUACUGAGGAUAUACAUGAGGAUCACCCAUGUAUCCAAGCUAGGAAACUAGCAAAUGUAGAAGGCAGUACUG [Ex3: 821]
apparent KD of MS2 coat protein [1]: 319 nM | apparent KD of MS2 coat protein [2]: 37.5 nM

AACAGUACAGGAUAUACAUGAGGAUCACCCAUGUGAAAGAAAAGUGGCGUACCACAAAGUAGAAGGGUACUGAA [Mat - Exclusion 3 - JL mod - D28]
apparent KD of MS2 coat protein [1]: 134 nM | apparent KD of MS2 coat protein [2]: 30.2 nM

From the supplement of paper PMC9170038
